The values that follow come from PMC7026407, “Multiple Growth Factor Targeting by Engineered Insulin-like Growth Factor Binding Protein-3 Augments EGF Receptor Tyrosine Kinase Inhibitor Efficacy” (Scientific Reports, 2020).

For assay [1], the target named is T1, neuregulin-1 (UniProt Q02297 20-241). The assay is described as follows: cell-based or functional assay.
Assay [2] concerns the target T2, hepatocyte growth factor (UniProt P14210 32-728). The assay is described as follows: cell-based or functional assay.
Assay [3] deals with T3, PDGF BB (UniProt P01127 82-190). The assay is described as follows: cell-based or functional assay.
Assay [4] concerns the target T4, insulin-like growth factor-1 (UniProt P05019 49-118). Kind of assay: cell-based or functional assay.
In assay [5] the target is T5, Basic FGF (UniProt P09038 143-288). Kind of assay: cell-based or functional assay.
Assay [6] deals with T1, neuregulin-1. Kind of assay: SPR; growth factor immobilised on a CM4 chip instead of the binding protein (asterisk in Table 1), binding protein or Fc fusion as analyte; HBS-P, 25 °C; regeneration with 4 M MgCl2 then 5 M guanidinium chloride; 1:1 binding analysis. As to conditions: both partners purified. A general note: In SPR one partner is held on a chip, and binding of the other changes the refractive index at the surface.

Assay [7] has as its target T2, hepatocyte growth factor. Described as above. To be noted: both partners purified.
Assay [8] has as its target T3, PDGF BB. The assay is described as above. As to conditions: both partners purified.
For assay [9], the target named is T5, Basic FGF. The description is as above. As to conditions: both partners purified.
Assay [10] has as its target VEGF-B (UniProt P49765 22-207). Described as above. As to conditions: both partners purified.
Assay [11] addresses T4, insulin-like growth factor-1. The assay is described as follows: SPR; IGF binding protein or Fc fusion amine-coupled to a CM4 chip, growth factor as analyte; Biacore T100 or T200, HBS-P, BSA (0.2 mg/ml) or NaCl (0.65 M final) to reduce non-specific binding, 25 °C; 1:1 binding analysis. As to conditions: both partners purified.
Assay [12] deals with T6, insulin-like growth factor-2 (UniProt P01344 25-91).
T6 construct: insulin-like growth factor 2, commercial growth factor; also called IGF2; IGF-2
The assay is described as above. As to conditions: both partners purified.

Assay [13] deals with T7, IGFBP-3 (UniProt P17936 28-291).
T7 construct: source: bought (commercially available, carrier-free)
Described as above. To be noted: both partners purified.

The target in assay [14] is T8, IGFBP-7 (UniProt Q16270 27-282).
T8 construct: source: bought (commercially available, carrier-free)
T8 sequence (looked up): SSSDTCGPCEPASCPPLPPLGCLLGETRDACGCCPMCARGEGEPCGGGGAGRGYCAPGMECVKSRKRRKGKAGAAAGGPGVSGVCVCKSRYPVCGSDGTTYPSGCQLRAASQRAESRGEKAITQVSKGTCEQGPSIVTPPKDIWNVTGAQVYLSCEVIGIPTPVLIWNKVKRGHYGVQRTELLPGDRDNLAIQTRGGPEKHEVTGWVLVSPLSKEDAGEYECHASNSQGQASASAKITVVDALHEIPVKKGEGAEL
The description is as above. To be noted: both partners purified.

For assay [15], the target named is T9, 56662 (UniProt P17936-1 28-291).
T9 construct: the secretory signal peptide was derived from IGFBP-2; Fc portion of IgG1 added to the C terminus of IGFBP-3; called an Fc dimer; Probably the mature IGFBP-3 after removal of the IGFBP-2 signal peptide; also called IGFBP-3-Fc; BP3-Fc (unmodified IGFBP-3 Fc construct); source: 293 T cells, transfected; conditioned medium purified by proteinA Sepharose; not shown: Fc (IgG1), C-terminal, kept
The assay is described as above. To be noted: both partners purified.

Assay [16] deals with T10, Chimera A.
T10 construct: signal peptide derived from IGFBP-2; VEGF receptor 1 domain 2, first part of VEGF-trap; VEGF receptor 2 domain 3, second part of VEGF-trap; VEGF-trap inserted between the IGFBP-3 and the Fc domain; also called chA; BP3-VEGF-trap-Fc; source: 293 T cells, transfected; conditioned medium purified by proteinA Sepharose; not shown: Fc (IgG1), C-terminal, kept
The assay is described as above. As to conditions: both partners purified.

Assay [17] deals with T9, 56662. The assay is described as follows: SPR; growth factor immobilised on a CM4 chip instead of the binding protein (asterisk in Table 1), binding protein or Fc fusion as analyte; HBS-P, 25 °C; regeneration with 4 M MgCl2 then 5 M guanidinium chloride; 1:1 binding analysis. As to conditions: both partners purified.
Assay [18] has as its target T10, Chimera A. The description is as above. As to conditions: both partners purified.
Target sequence in this assay (Q02297 20-241, stated change not applied): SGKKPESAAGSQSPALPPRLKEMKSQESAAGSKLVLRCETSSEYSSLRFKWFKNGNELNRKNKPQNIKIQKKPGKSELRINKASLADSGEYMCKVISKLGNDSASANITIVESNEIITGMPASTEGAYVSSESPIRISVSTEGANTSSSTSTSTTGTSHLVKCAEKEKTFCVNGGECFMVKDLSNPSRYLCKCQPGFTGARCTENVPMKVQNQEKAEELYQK
The target in assay [19] is T11, IGFBP-2 (UniProt P18065 36-325).
T11 construct: source: bought (commercially available, carrier-free)
T11 sequence (looked up): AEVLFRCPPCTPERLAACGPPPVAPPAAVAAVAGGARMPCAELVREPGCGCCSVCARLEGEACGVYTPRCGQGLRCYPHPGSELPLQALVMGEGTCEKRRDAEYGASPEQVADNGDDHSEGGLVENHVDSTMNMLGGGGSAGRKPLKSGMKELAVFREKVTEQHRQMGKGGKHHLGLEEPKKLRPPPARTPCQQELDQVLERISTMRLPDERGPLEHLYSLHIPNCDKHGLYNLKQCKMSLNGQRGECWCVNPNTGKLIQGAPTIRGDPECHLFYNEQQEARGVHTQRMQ
Kind of assay: SPR; IGF binding protein or Fc fusion amine-coupled to a CM4 chip, growth factor as analyte; Biacore T100 or T200, HBS-P, BSA (0.2 mg/ml) or NaCl (0.65 M final) to reduce non-specific binding, 25 °C; 1:1 binding analysis. As to conditions: both partners purified.

T1 sequence (Q02297 20-241): as the sequence (Q02297 20-241, stated change not applied) above
T5 sequence (P09038 143-288): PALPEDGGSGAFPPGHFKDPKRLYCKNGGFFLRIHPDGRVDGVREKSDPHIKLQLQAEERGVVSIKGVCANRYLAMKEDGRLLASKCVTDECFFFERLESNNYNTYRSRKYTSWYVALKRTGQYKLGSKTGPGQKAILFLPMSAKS
T2 sequence (P14210 32-728): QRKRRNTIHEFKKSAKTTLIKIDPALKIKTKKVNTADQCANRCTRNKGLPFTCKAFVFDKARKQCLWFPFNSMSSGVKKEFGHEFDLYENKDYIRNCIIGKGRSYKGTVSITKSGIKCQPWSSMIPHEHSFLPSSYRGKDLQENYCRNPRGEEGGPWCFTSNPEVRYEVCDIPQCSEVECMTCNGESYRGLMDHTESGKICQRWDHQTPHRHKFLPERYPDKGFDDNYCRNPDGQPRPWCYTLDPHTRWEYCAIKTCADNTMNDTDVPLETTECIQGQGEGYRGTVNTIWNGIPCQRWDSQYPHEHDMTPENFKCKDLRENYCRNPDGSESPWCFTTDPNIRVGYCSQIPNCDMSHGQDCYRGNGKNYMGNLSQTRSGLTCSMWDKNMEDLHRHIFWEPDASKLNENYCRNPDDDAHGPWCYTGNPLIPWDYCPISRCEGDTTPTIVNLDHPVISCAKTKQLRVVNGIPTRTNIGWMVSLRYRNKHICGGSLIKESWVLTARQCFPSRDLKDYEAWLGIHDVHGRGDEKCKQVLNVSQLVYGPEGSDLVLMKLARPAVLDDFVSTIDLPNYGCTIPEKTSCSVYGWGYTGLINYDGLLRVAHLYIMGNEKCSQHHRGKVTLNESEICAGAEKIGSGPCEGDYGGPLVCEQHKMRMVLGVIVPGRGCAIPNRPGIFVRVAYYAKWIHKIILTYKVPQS
T4 sequence (P05019 49-118): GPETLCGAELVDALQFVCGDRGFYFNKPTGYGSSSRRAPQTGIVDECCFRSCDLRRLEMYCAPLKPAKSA
T3 sequence (P01127 82-190): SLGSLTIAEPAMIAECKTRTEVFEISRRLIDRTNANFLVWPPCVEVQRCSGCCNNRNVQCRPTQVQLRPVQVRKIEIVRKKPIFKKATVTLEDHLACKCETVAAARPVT
T6 sequence (P01344 25-91): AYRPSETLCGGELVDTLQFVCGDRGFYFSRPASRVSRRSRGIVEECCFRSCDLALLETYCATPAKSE

B1: D3 (Fc fusion)
chain: GASSAGLGPVVRCEPCDARALAQCAPPPAVCAELVREPGCGCCLTCALSEGQPCGIYTERCGSGLRCQPSPDEARPLQALLDGRGLCVNASAVSRPAPPAPGNASESEEDRSAGSVESPSVSSTHRVSDPKFHPKGHAKVDYESQSTDTQNFSSESKRETEYGPCRREMEDTLNHLKFLNVLSPRGVHIPNCDKKGFYKKKQCRPSKGRKRGFCWCVDKYGQPLPGYTTKGKEDVHCYSMQSK
Consider B1, for which, in [1], the “IC50 of inhibition of NRG-stimulated proliferation, Hep3B cells” value is 43 nM and the “IC50 of inhibition of NRG-stimulated proliferation, MCF-7 cells” value came out at 112 nM. Besides, in [2], the “IC50 of inhibition of HGF-stimulated proliferation, HUVEC” value stood at 56 nM and the “IC50 of inhibition of HGF-stimulated proliferation, Hep3B cells” value turned out to be 58 nM. Besides, the “IC50 of inhibition of PDGF BB-stimulated proliferation, 3T3 cells” value in assay [3] was found to be 30 nM. Moreover, in assay [4], the “IC50 of inhibition of IGF1-stimulated proliferation, HUVEC” value is 7.45 nM; the “IC50 of inhibition of IGF1-stimulated proliferation, Hep3B cells” value turned out to be 21 nM; the “IC50 of inhibition of IGF1-stimulated proliferation, MCF-7 cells” value was 29 nM. Also, in assay [5], the “IC50 of inhibition of bFGF-stimulated proliferation, HUVEC” value was 39 nM; the “IC50 of inhibition of bFGF-stimulated proliferation, Hep3B cells” value turned out to be 59 nM; the “IC50 of inhibition of bFGF-stimulated proliferation, MCF-7 cells” value is 26 nM. The same molecule displayed a Kd in assay [6] of 2.62 nM. Also, in assay [7], binding was put at a Kd of 2.63 nM. Also, the dissociation constant Kd in assay [8] is 5.29 nM. Besides, in [9], the dissociation constant (Kd) was determined as 3.29 nM.

B2: D3 (Fc fusion)
chain: GASSAGLGPVVRCEPCDARALAQCAPPPAVCAELVREPGCGCCLTCALSEGQPCGIYTERCGSGLRCQPSPDEARPLQALLDGRGLCVNASAVSRPAPPAPGNASESEEDRSAGSVESPSVSSTHRVSDPKFHPKGHAKVDYESQSTDTQNFSSESKRETEYGPCRREMEDTLNHLKFLNVLSPRGVHIPNCDKKGFYKKKQCRPSKGRKRGFCWCVDKYGQPLPGYTTKGKEDVHCYSMQSK
modifications: Secreted Fc-fusion dimer; Fc omitted. Deletions 121-126, 166-174 and 180-185 are in 56662 precursor numbering (UniProt = construct + 2). The IGFBP-2 signal peptide is removed. / Disulfide-linked …
For the molecule B2, the Kd in [10] is 19.8 nM.

B3: D3 (Fc fusion)
chain: GASSAGLGPVVRCEPCDARALAQCAPPPAVCAELVREPGCGCCLTCALSEGQPCGIYTERCGSGLRCQPSPDEARPLQALLDGRGLCVNASAVSRPAPPAPGNASESEEDRSAGSVESPSVSSTHRVSDPKFHPKGHAKVDYESQSTDTQNFSSESKRETEYGPCRREMEDTLNHLKFLNVLSPRGVHIPNCDKKGFYKKKQCRPSKGRKRGFCWCVDKYGQPLPGYTTKGKEDVHCYSMQSK
modifications: Secreted Fc-fusion dimer; Fc omitted. Deletions 121-126, 166-174 and 180-185 are in 56662 precursor numbering (UniProt = construct + 2). The IGFBP-2 signal peptide is removed.
Turning to B3, the Kd in assay [11] is 0.51 nM; in assay [12] it was 0.22 nM.

B4: neuregulin-1 (ligand)
chain: SERKEGRGKGKGKKKERGSGKKPESAAGSQSPALPPRLKEMKSQESAAGSKLVLRCETSSEYSSLRFKWFKNGNELNRKNKPQNIKIQKKPGKSELRINKASLADSGEYMCKVISKLGNDSASANITIVESNEIITGMPASTEGAYVSSESPIRISVSTEGANTSSSTSTSTTGTSHLVKCAEKEKTFCVNGGECFMVKDLSNPSRYLCKCPNEFTGDRCQNYVMASFYKHLGIEFMEAEELYQK
modifications: R&D 377-HB, neuregulin extracellular domain, taken as NRG1-beta1 Ser2-Lys246; the paper prints only the catalogue number and 'extracellular domain'.
In the case of B4, the dissociation constant Kd came out at 2.09 nM in assay [13]; 1600 nM in [14]; 4.46 nM in assay [15]; 3.21 nM in assay [16]; 4.66 nM in assay [17]; 1.71 nM in [18].

B5: VEGF-B (ligand)
chain: PVSQPDAPGHQRKVVSWIDVYTRATCQPREVVVPLTVELMGTVAKQLVPSCVTVQRCGGCCPDDGLECVPTGQHQVRMQILMIRYPSSQLGEMSLEEHSQCECRPKKKDSAVKPDSPRPLCPRCTQHHQRPDPRTCRCRCRRRSFLRCQGRGLELNPDTCRCRKLRR
modifications: Disulfide-linked homodimer. R&D 751-VE taken as the VEGF-B167 isoform; isoform and limits are not printed.
With B5, the equilibrium dissociation constant (Kd) in assay [19] was 2.82 nM; in [13] it was 16.1 nM; in [14], 9.88 nM; in [15] it was 14.3 nM; in [16], 0.49 nM.

By Kd is commonly meant the concentration at which binding is half-saturated. Read a low Kd as tighter binding.
